According to US20110256153A1 (IMMUNOGEN, published 2011):

What was measured:
human CD37 [1] = molecular target: T1, human CD37 (human, UniProt P11049 1-278); assay: cell-based or functional assay
T1 sequence: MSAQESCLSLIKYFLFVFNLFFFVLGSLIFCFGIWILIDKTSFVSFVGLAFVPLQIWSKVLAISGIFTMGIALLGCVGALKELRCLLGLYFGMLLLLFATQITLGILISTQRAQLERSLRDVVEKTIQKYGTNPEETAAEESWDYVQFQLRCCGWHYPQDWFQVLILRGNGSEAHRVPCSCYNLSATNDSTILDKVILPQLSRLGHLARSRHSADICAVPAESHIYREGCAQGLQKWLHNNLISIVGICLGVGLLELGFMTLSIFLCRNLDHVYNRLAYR

human CD37 [2] = molecular target: T1, human CD37; assay: flow cytometry titration on BJAB cells (FIG. 20B); apparent Kd
human CD37 [3] = molecular target: T1, human CD37; assay: flow cytometry titration on BJAB cells; apparent Kd
Procedure: (§1) Binding specificity was tested by flow cytometry using purified antibodies. […] All murine antibodies were incubated for 3 h with either CD37-expressing 300-19 cells or the non-transfected 300-19 cells (1×10⁵ cells per sample) in 100 μL FACS buffer (RPMI-1640 medium supplemented with 2% normal goat serum). Then, the cells were pelleted, washed, and incubated for 1 h with 100 μL of FITC-conjugated goat anti-mouse IgG-antibody (Jackson Laboratory, 6 μg/mL in FACS buffer). The cells were pelleted again, washed with FACS buffer and resuspended in 200 μL of PBS containing 1% formaldehyde. Samples were acquired using a FACSCalibur flow cytometer with the HTS multiwell sampler or a FACS array flow cytometer and analyzed using CellQuest Pro (all from BD Biosciences, San Diego, US).
The humanized antibodies huCD37-38, huCD37-50, huCD37-51, huCD37-56 and chCD37-57 were assayed for their binding affinity to BJAB cells in comparison to their murine counterparts. Flow cytometry binding assays were carried out using secondary FITC-conjugated goat-anti-murine and -anti-human antibodies, analyzed as described in Example 2 and dose-response curves were generated by non-linear regression for each antibody. The value for the apparent dissociation constant (Kd) of each antibody was calculated using GraphPad Prism v4 (GraphPad software, San Diego, Calif.).

macaque CD37 [4] = molecular target: T2, macaque CD37 (macaque, UniProt P11049 1-277 (human entry)); assay: flow cytometry titration on 300-19/CD37mac cells; apparent Kd
T2 construct: Expressed on 300-19 cells transfected with pSRa-CD37mac (300-19/CD37mac cells); also called macaca CD37; macaque derived CD37 antigen
T2 chain: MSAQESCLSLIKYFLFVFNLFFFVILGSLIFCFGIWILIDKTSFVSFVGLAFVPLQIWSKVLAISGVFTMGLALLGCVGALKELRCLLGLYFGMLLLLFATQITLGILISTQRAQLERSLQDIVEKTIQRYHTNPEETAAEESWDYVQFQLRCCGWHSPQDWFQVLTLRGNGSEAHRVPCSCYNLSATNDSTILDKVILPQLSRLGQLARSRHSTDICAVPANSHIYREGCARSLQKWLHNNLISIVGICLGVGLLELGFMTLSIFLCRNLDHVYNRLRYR
Procedure: as §1
Flow cytometry binding assays were carried out using secondary FITC-conjugated goat-anti-human antibodies, analyzed as described in Example 2 and dose-response curves were generated by non-linear regression for each antibody. The value for the apparent dissociation constant (Kd) of each antibody was calculated using GraphPad Prism v4 (GraphPad software, San Diego, Calif.).

human CD37 [5] = molecular target: T1, human CD37; assay: flow cytometry titration on Ramos cells; apparent Kd
Procedure: as §1
The chimeric antibodies chCD37-3 and chCD37-12 were assayed for their binding affinity to Ramos cells in comparison to their murine counterparts. Flow cytometry binding assays using Ramos cells and muCD37-3, chCD37-3, muCD37-12 and chCD37-12 antibodies were carried out and analyzed as described in Example 2 using secondary FITC-conjugated goat-anti-murine and -anti-human antibodies. FIG. 9A depicts the dose-response curves generated by non-linear regression for each antibody. The value for the apparent dissociation constant (Kd) of each antibody was calculated using GraphPad Prism v4 (GraphPad software, San Diego, Calif.).

human CD37 [6] = molecular target: T1, human CD37; assay: competition flow cytometry on BJAB cells; competitor PE-labeled muCD37-3 (1 nM)
Procedure: Flow cytometry binding assays using BJAB cells and a competitive binding format were used to evaluate binding affinity of chimeric and humanized versions of CD37-3. BJAB cells were incubated with a 1 nM concentration of PE-labeled muCD37-3 antibody and competition was measured by adding varying amounts of muCD37-3, chCD37-3, huCD37-3v1.0 or huCD37-3v1.01. The samples were incubated for 3 hrs at 4° C. Then, the cells were pelleted, washed with FACS buffer and resuspended in 200 μL of PBS containing 1% formaldehyde. Samples were acquired using a FACSCalibur flow cytometer with the HTS multiwell sampler and analyzed using CellQuest Pro (all from BD Biosciences, San Diego, US). The resulting mean PE fluorescence was plotted against the amount of competing antibody used in a semi-log plot. FIG. 9B depicts the dose-response curves generated by non-linear regression for each antibody. The value for the apparent dissociation constant (Kd) of each antibody was calculated using GraphPad Prism v4 (GraphPad software, San Diego, Calif.).

macaque CD37 [7] = molecular target: T2, macaque CD37; assay: flow cytometry, 300-19/CD37mac cells
Procedure: as §1
The murine antibodies muCD37-3, muCD37-12, muCD37-38, […], muCD37-51, muCD37-56 and muCD37-57 were assayed for their ability to bind to 300-19/CD37mac cells expressing macaque CD37. Flow cytometry binding assays were carried out using secondary FITC-conjugated goat-anti-murine or goat-anti-human antibodies, analyzed as described in Example 2. Binding was compared to the previously described anti-CD37 antibody WR17 and the anti-CD37 SMIP TRU-016. […] In contrast, muCD37-3, muCD37-12, the previously described anti-CD37 antibody WR17 and the anti-CD37 SMIP TRU-016 are unable to bind the macaque derived CD37 antigen.

hCD37-M45 = molecular target: T3, hCD37-M45 (human/murine chimera, UniProt P11049 1-281); assay: flow cytometry, 300-19 cells expressing hCD37-M45
T3 construct: stably expressed on 300-19 cells; also called hCD37-M45 variant
T3 chain: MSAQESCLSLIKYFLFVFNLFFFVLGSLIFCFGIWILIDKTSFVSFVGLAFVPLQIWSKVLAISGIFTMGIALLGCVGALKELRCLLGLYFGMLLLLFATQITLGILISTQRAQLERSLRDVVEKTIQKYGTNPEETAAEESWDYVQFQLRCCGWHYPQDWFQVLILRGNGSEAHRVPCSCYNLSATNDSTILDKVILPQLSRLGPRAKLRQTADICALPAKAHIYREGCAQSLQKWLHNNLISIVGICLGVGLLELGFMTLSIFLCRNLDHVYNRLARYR
Procedure: as §1
(§2) Binding of various CD37 antibodies to cells expressing human CD37 wildtype and variants was analyzed by flow cytometry using 1.5 μg/mL of each antibody. The isolated antibodies of this invention were compared to commercially available CD37 antibody WR17, as well as the TRU-016 SMIP. […] Likewise, all antibodies tested bound the hCD37-M3 variant (FIG. 18B). In contrast, the isolated antibodies of this invention bound the hCD37-M1 variant, while TRU-016 and WR17 were unable to bind hCD37-M1 variant (FIG. 19A). The CD37-50 and CD37-51 antibodies and TRU-016 were also able to bind the hCD37-M45 variant. […] In contrast, the CD37-3, CD37-12, CD37-38, CD37-56 and CD37-57 antibodies require at least one of the AA residues in the hCD37-M45 variant that were changed to the corresponding murine AA residues for binding to the CD37 antigen.

hCD37-M1 = molecular target: T4, hCD37-M1 (human/murine chimera, UniProt P11049 1-281); assay: flow cytometry, 300-19 cells expressing hCD37-M1, 1.5 µg/mL antibody
T4 construct: stably expressed on 300-19 cells; also called hCD37-M1 variant
T4 chain: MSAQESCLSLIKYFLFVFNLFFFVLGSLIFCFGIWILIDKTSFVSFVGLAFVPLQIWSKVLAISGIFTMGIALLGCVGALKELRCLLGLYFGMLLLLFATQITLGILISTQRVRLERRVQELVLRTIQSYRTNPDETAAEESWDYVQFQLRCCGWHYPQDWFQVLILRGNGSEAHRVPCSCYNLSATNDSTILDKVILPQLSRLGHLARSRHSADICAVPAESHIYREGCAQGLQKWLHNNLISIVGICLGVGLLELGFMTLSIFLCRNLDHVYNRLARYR
Procedure: as §1, §2

hCD37-M3 = molecular target: T5, hCD37-M3 (human/murine chimera, UniProt P11049 1-281); assay: flow cytometry, 300-19 cells expressing hCD37-M3, 1.5 µg/mL antibody
T5 construct: stably expressed on 300-19 cells; also called hCD37-M3 variant
T5 chain: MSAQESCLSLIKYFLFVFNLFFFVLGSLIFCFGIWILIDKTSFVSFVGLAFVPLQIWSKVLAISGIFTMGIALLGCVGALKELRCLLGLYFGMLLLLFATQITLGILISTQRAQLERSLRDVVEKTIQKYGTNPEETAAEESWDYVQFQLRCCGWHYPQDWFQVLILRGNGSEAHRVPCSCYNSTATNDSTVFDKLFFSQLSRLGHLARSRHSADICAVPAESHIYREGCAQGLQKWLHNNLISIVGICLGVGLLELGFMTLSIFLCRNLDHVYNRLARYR
Procedure: as §1, §2

human CD37 [8] = molecular target: T1, human CD37; assay: flow cytometry titration on WSU-DLCL-2 cells; EC50 taken as apparent Kd
Procedure: as §1
To verify that the antibodies can also bind to endogenously expressed CD37, binding experiments were performed with CD37-positive WSU-DLCL-2 lymphoma cells and the muCD37-3, muCD37-12, muCD37-8, muCD37-10 or muCD37-14 antibodies. WSU-DLCL-2 cells were incubated with varying concentrations of murine antibodies and processed as described above for flow cytometry analysis. Data analysis was performed using CellQuest Pro (BD Biosciences, San Diego, US) and for each sample the mean fluorescence intensity for FL1 (MFI) was exported and plotted against the antibody concentration in a semi-log plot (FIG. 3). […]

B1: huCD37-38-SMCC-DM1 (antibody, human IgG1, kappa, V domains shown)
VH: QVQLQESGPGLVKPSQSLSLTCTVSGYSITSGFGWHWIRQFPGKGLEWMAYILYSGGTDYNPSLKSRISITRDTSKNQFFLRLSSVTAADTATYYCARGYYGYGAWFVYWGQGTLVTVSS
VL: DIVLTQSPASMSASPGERVTMTCSASSSVTYMHWYQQKPGTSPKRWIYDTSKLASGVPARFSGSGSGTSYSLTISSMEAEDAATYYCQQWISNPPTFGGGTKLEIKR
modifications: DM1 attached through SMCC linker; attachment residues and load not stated
notes: SMCC-DM1 conjugate of huCD37-38
EC50 of in vitro cytotoxicity, WST-8 assay, Daudi cells (human CD37 [1]): 0.098 nM
EC50 of in vitro cytotoxicity, WST-8 assay, Granta-519 cells (human CD37 [1]): 0.074 nM
Kd (human CD37 [2]): 1.2 nM

B2: huCD37-38 (antibody, human IgG1, kappa, V domains shown)
VH: B1 VH
VL: B1 VL
notes: Humanized antibody
Kd (human CD37 [3]): 0.3 nM
Kd (macaque CD37 [4]): 1.1 nM
Kd (human CD37 [2]): 1.04 nM

B3: chCD37-3 (antibody, human IgG1, kappa)
heavy: not shown
light: DIQMTQSPASLSVSVGETVTITCRASENIRSNLAWYQQKQGKSPQLLVNVATNLADGVPSRFSGSGSGTQYSLKINSLQSEDFGTYYCQHYWGTTWTFGGGTKLEIKRTVAAPSVFIFPPSDEQLKSGTASVVCLLNNFYPREAKVQWKVDNALQSGNSQESVTEQDSKDSTYSLSSTLTLSKADYEKHKVYACEVTHQGLSSPVTKSFNRGEC
notes: Chimeric antibody, murine variable regions with human constant regions
Kd (human CD37 [5]): 0.8 nM
EC50 (human CD37 [6]): 0.7 nM

B4: muCD37-12 (antibody, mouse IgG2a, kappa)
heavy: QIQLVQSGPELKKPGETVKISCKASGYTFTKYGMNWVKQAQGKGLKWMGWINTNTGESRNAEEFKGRFAFSLETSASTAYLQINNLKYEDTATYFCGRGTVVADWGQGTTLTVSSAKTTAPSVYPLAPVCGDTTGSSVTLGCLVKGYFPEPVTLTWNSGSLSSGVHTFPAVLQSDLYTLSSSVTVTSSTWPSQSITCNVAHPASSTKVDKKIEPRGPTIKPCPPCKCPAPNLLGGPSVFIFPPKIKDVLMISLSPIVTCVVVDVSEDDPDVQISWFVNNVEVHTAQTQTHREDYNSTLRVVSALPIQHQDWMSGKEFKCKVNNKDLPAPIERTISKPKGSVRAPQVYVLPPPEEEMTKKQVTLTCMVTDFMPEDIYVEWTNNGKTELNYKNTEPVLDSDGSYFMYSKLRVEKKNWVERNSYSCSVVHEGLHNHHTTKSFSRTPGK
light: DIVLTQSPASLAVSLGQRATISCRASQSVSTSSYSYLYWFQQKPGQPPKLLIKYASNLASGVPARFSGSGSGTDFTLNIHPVEEEDTATYYCQHSWEIPYTFGGGTKLEIKRADAAPTVSIFPPSSEQLTSGGASVVCFLNNFYPKDINVKWKIDGSERQNGVLNSWTDQDSKDSTYSMSSTLTLTKDEYERHNSYTCEATHKTSTSPIVKSFNRNEC
notes: Murine hybridoma antibody
binding result (macaque CD37 [7]): no binding
binding result (hCD37-M45): no binding (tested: 1.5 µg/mL)
Kd (human CD37 [5]): 0.8 nM
binding result (hCD37-M1): binds
binding result (hCD37-M3): binds
Kd (human CD37 [8]): 1.1 nM
